Source: paper PMC12416549 (2024)

Target: T1, TNFR1 (Homo sapiens, UniProt P19438)
T1 chain: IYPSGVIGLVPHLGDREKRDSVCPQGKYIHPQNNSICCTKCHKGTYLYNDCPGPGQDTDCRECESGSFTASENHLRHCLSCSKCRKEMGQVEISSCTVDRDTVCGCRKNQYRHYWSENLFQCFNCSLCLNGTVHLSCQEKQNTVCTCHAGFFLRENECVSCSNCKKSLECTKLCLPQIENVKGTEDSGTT
Test: yeast display SC50

B1: E25S (designed binder)
chain: MTLQELLREEALRRAEAEAFRYALSLLAEKFPEQKEYLLDLAEEIESQIRSLSGVDVEDVRKFLDKEWAWVKELLAEHPAELAEVEAARAARLAELRAEVEAKVAA
apparent Kd (screen): 1050 pM

B2: E29H (designed binder)
chain: MTLQELLREEALRRAEAEAFRYALELLAHKFPEQKEYLLDLAEEIESQIRSLSGVDVEDVRKFLDKEWAWVKELLAEHPAELAEVEAARAARLAELRAEVEAKVAA
apparent Kd (screen): 446 pM

B3: R89V (designed binder)
chain: MTLQELLREEALRRAEAEAFRYALELLAEKFPEQKEYLLDLAEEIESQIRSLSGVDVEDVRKFLDKEWAWVKELLAEHPAELAEVEAAVAARLAELRAEVEAKVAA
apparent Kd (screen): 790 pM

B4: K35V (designed binder)
chain: MTLQELLREEALRRAEAEAFRYALELLAEKFPEQVEYLLDLAEEIESQIRSLSGVDVEDVRKFLDKEWAWVKELLAEHPAELAEVEAARAARLAELRAEVEAKVAA
apparent Kd (screen): 1540 pM

B5: K62D (designed binder)
chain: MTLQELLREEALRRAEAEAFRYALELLAEKFPEQKEYLLDLAEEIESQIRSLSGVDVEDVRDFLDKEWAWVKELLAEHPAELAEVEAARAARLAELRAEVEAKVAA
apparent Kd (screen): 593 pM

B6: L75M (designed binder)
chain: MTLQELLREEALRRAEAEAFRYALELLAEKFPEQKEYLLDLAEEIESQIRSLSGVDVEDVRKFLDKEWAWVKELMAEHPAELAEVEAARAARLAELRAEVEAKVAA
apparent Kd (screen): 1540 pM

B7: R61A (designed binder)
chain: MTLQELLREEALRRAEAEAFRYALELLAEKFPEQKEYLLDLAEEIESQIRSLSGVDVEDVAKFLDKEWAWVKELLAEHPAELAEVEAARAARLAELRAEVEAKVAA
apparent Kd (screen): 869 pM

B8: V55T (designed binder)
chain: MTLQELLREEALRRAEAEAFRYALELLAEKFPEQKEYLLDLAEEIESQIRSLSGTDVEDVRKFLDKEWAWVKELLAEHPAELAEVEAARAARLAELRAEVEAKVAA
apparent Kd (screen): 718 pM

B9: A83F (designed binder)
chain: MTLQELLREEALRRAEAEAFRYALELLAEKFPEQKEYLLDLAEEIESQIRSLSGVDVEDVRKFLDKEWAWVKELLAEHPAELFEVEAARAARLAELRAEVEAKVAA
apparent Kd (screen): 593 pM

B10: A80T (designed binder)
chain: MTLQELLREEALRRAEAEAFRYALELLAEKFPEQKEYLLDLAEEIESQIRSLSGVDVEDVRKFLDKEWAWVKELLAEHPTELAEVEAARAARLAELRAEVEAKVAA
apparent Kd (screen): 718 pM

B11: R50P (designed binder)
chain: MTLQELLREEALRRAEAEAFRYALELLAEKFPEQKEYLLDLAEEIESQIPSLSGVDVEDVRKFLDKEWAWVKELLAEHPAELAEVEAARAARLAELRAEVEAKVAA
apparent Kd (screen): 2250 pM

B12: Q4F (designed binder)
chain: MTLFELLREEALRRAEAEAFRYALELLAEKFPEQKEYLLDLAEEIESQIRSLSGVDVEDVRKFLDKEWAWVKELLAEHPAELAEVEAARAARLAELRAEVEAKVAA
apparent Kd (screen): 490 pM

B13: V85F (designed binder)
chain: MTLQELLREEALRRAEAEAFRYALELLAEKFPEQKEYLLDLAEEIESQIRSLSGVDVEDVRKFLDKEWAWVKELLAEHPAELAEFEAARAARLAELRAEVEAKVAA
apparent Kd (screen): 790 pM

B14: E16F (designed binder)
chain: MTLQELLREEALRRAFAEAFRYALELLAEKFPEQKEYLLDLAEEIESQIRSLSGVDVEDVRKFLDKEWAWVKELLAEHPAELAEVEAARAARLAELRAEVEAKVAA
apparent Kd (screen): 1050 pM

B15: R92T (designed binder)
chain: MTLQELLREEALRRAEAEAFRYALELLAEKFPEQKEYLLDLAEEIESQIRSLSGVDVEDVRKFLDKEWAWVKELLAEHPAELAEVEAARAATLAELRAEVEAKVAA
apparent Kd (screen): 593 pM

B16: K103G (designed binder)
chain: MTLQELLREEALRRAEAEAFRYALELLAEKFPEQKEYLLDLAEEIESQIRSLSGVDVEDVRKFLDKEWAWVKELLAEHPAELAEVEAARAARLAELRAEVEAGVAA
apparent Kd (screen): 490 pM

B17: R50L (designed binder)
chain: MTLQELLREEALRRAEAEAFRYALELLAEKFPEQKEYLLDLAEEIESQILSLSGVDVEDVRKFLDKEWAWVKELLAEHPAELAEVEAARAARLAELRAEVEAKVAA
apparent Kd (screen): 869 pM

B18: A69K (designed binder)
chain: MTLQELLREEALRRAEAEAFRYALELLAEKFPEQKEYLLDLAEEIESQIRSLSGVDVEDVRKFLDKEWKWVKELLAEHPAELAEVEAARAARLAELRAEVEAKVAA
apparent Kd (screen): 593 pM

B19: E25F (designed binder)
chain: MTLQELLREEALRRAEAEAFRYALFLLAEKFPEQKEYLLDLAEEIESQIRSLSGVDVEDVRKFLDKEWAWVKELLAEHPAELAEVEAARAARLAELRAEVEAKVAA
apparent Kd (screen): 539 pM

B20: A90G (designed binder)
chain: MTLQELLREEALRRAEAEAFRYALELLAEKFPEQKEYLLDLAEEIESQIRSLSGVDVEDVRKFLDKEWAWVKELLAEHPAELAEVEAARGARLAELRAEVEAKVAA
apparent Kd (screen): 653 pM

B21: R50I (designed binder)
chain: MTLQELLREEALRRAEAEAFRYALELLAEKFPEQKEYLLDLAEEIESQIISLSGVDVEDVRKFLDKEWAWVKELLAEHPAELAEVEAARAARLAELRAEVEAKVAA
apparent Kd (screen): 956 pM

B22: L6E (designed binder)
chain: MTLQEELREEALRRAEAEAFRYALELLAEKFPEQKEYLLDLAEEIESQIRSLSGVDVEDVRKFLDKEWAWVKELLAEHPAELAEVEAARAARLAELRAEVEAKVAA
apparent Kd (screen): 8560 pM

B23: E58T (designed binder)
chain: MTLQELLREEALRRAEAEAFRYALELLAEKFPEQKEYLLDLAEEIESQIRSLSGVDVTDVRKFLDKEWAWVKELLAEHPAELAEVEAARAARLAELRAEVEAKVAA
apparent Kd (screen): 718 pM

B24: A90I (designed binder)
chain: MTLQELLREEALRRAEAEAFRYALELLAEKFPEQKEYLLDLAEEIESQIRSLSGVDVEDVRKFLDKEWAWVKELLAEHPAELAEVEAARIARLAELRAEVEAKVAA
apparent Kd (screen): 490 pM

B25: L7C (designed binder)
chain: MTLQELCREEALRRAEAEAFRYALELLAEKFPEQKEYLLDLAEEIESQIRSLSGVDVEDVRKFLDKEWAWVKELLAEHPAELAEVEAARAARLAELRAEVEAKVAA
apparent Kd (screen): 8560 pM

B26: A69I (designed binder)
chain: MTLQELLREEALRRAEAEAFRYALELLAEKFPEQKEYLLDLAEEIESQIRSLSGVDVEDVRKFLDKEWIWVKELLAEHPAELAEVEAARAARLAELRAEVEAKVAA
apparent Kd (screen): 653 pM

B27: L6H (designed binder)
chain: MTLQEHLREEALRRAEAEAFRYALELLAEKFPEQKEYLLDLAEEIESQIRSLSGVDVEDVRKFLDKEWAWVKELLAEHPAELAEVEAARAARLAELRAEVEAKVAA
apparent Kd (screen): 8560 pM

B28: S51V (designed binder)
chain: MTLQELLREEALRRAEAEAFRYALELLAEKFPEQKEYLLDLAEEIESQIRVLSGVDVEDVRKFLDKEWAWVKELLAEHPAELAEVEAARAARLAELRAEVEAKVAA
apparent Kd (screen): 2050 pM

B29: E73D (designed binder)
chain: MTLQELLREEALRRAEAEAFRYALELLAEKFPEQKEYLLDLAEEIESQIRSLSGVDVEDVRKFLDKEWAWVKDLLAEHPAELAEVEAARAARLAELRAEVEAKVAA
apparent Kd (screen): 539 pM

B30: L3R (designed binder)
chain: MTRQELLREEALRRAEAEAFRYALELLAEKFPEQKEYLLDLAEEIESQIRSLSGVDVEDVRKFLDKEWAWVKELLAEHPAELAEVEAARAARLAELRAEVEAKVAA
apparent Kd (screen): 2480 pM

B31: A98E (designed binder)
chain: MTLQELLREEALRRAEAEAFRYALELLAEKFPEQKEYLLDLAEEIESQIRSLSGVDVEDVRKFLDKEWAWVKELLAEHPAELAEVEAARAARLAELREEVEAKVAA
apparent Kd (screen): 869 pM

B32: A106I (designed binder)
chain: MTLQELLREEALRRAEAEAFRYALELLAEKFPEQKEYLLDLAEEIESQIRSLSGVDVEDVRKFLDKEWAWVKELLAEHPAELAEVEAARAARLAELRAEVEAKVAI
apparent Kd (screen): 593 pM

B33: E99R (designed binder)
chain: MTLQELLREEALRRAEAEAFRYALELLAEKFPEQKEYLLDLAEEIESQIRSLSGVDVEDVRKFLDKEWAWVKELLAEHPAELAEVEAARAARLAELRARVEAKVAA
apparent Kd (screen): 446 pM

B34: R13I (designed binder)
chain: MTLQELLREEALIRAEAEAFRYALELLAEKFPEQKEYLLDLAEEIESQIRSLSGVDVEDVRKFLDKEWAWVKELLAEHPAELAEVEAARAARLAELRAEVEAKVAA
apparent Kd (screen): 368 pM

B35: A88T (designed binder)
chain: MTLQELLREEALRRAEAEAFRYALELLAEKFPEQKEYLLDLAEEIESQIRSLSGVDVEDVRKFLDKEWAWVKELLAEHPAELAEVEATRAARLAELRAEVEAKVAA
apparent Kd (screen): 1400 pM
